Results from publication PMC12053622 (2025).
Blank lines part the entries; values can stand above or below the binder they belong to.

Key:
Experiment in all cases: BLI
hMCT1/hBSG [1] = target: T1, hMCT1/hBSG (Homo sapiens)
T1 chain 1: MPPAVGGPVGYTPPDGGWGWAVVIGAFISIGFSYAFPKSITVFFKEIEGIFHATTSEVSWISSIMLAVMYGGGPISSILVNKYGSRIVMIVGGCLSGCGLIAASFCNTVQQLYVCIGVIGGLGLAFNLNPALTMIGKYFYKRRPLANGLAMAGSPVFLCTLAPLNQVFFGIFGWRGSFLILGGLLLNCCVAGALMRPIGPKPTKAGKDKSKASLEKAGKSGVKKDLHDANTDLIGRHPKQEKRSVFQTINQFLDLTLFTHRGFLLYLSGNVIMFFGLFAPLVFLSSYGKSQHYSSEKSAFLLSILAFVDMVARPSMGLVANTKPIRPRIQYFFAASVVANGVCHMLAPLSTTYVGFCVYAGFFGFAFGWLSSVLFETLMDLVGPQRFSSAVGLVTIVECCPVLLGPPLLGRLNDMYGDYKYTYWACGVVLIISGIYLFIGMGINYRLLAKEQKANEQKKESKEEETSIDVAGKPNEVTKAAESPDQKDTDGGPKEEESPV
T1 chain 2: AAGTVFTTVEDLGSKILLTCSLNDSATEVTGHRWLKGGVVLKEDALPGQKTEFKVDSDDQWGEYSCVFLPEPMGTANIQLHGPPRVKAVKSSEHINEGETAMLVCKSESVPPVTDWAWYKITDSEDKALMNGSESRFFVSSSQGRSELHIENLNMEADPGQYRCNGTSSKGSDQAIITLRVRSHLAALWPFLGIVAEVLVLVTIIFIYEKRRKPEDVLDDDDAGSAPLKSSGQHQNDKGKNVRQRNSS

hMCT1/hBSG [2] = target: T1, hMCT1/hBSG
WT mMCT1/mBSG complex = target: T2, WT mMCT1/mBSG complex (mouse, UniProt P53986 1-493)
T2 chain 1: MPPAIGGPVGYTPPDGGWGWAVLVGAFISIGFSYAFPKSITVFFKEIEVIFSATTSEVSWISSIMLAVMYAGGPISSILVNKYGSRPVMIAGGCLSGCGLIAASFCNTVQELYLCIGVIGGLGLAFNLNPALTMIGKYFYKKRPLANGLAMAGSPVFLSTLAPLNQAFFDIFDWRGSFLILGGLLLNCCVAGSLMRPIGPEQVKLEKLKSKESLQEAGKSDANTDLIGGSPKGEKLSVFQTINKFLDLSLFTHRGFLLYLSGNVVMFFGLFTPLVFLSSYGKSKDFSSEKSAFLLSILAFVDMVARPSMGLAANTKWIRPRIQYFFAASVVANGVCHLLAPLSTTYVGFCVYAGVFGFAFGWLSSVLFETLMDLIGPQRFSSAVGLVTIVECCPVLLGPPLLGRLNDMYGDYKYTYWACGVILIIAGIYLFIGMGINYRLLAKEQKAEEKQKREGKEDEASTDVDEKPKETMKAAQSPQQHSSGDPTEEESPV
T2 chain 2: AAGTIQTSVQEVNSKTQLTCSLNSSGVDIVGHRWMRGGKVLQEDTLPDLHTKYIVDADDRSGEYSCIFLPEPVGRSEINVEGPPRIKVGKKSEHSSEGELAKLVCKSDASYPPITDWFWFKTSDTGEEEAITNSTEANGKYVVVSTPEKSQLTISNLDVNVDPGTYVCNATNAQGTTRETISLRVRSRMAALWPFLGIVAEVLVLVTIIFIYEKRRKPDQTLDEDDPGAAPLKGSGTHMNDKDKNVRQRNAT

koff (hMCT1/hBSG [1]): 0.000183 s⁻¹ | Kd (hMCT1/hBSG [2]): 4.41 nM
B1: 6E7F1 monoclonal antibody (antibody, V domains shown)
VH: QVQLQQPGAELVKPGASVNLSCKASGYTFTNYWIHWVKQRPGQGLEWIGMIHPNSGTINYNEKFKTKATLTVDKSSSTAYMQLSSLTSEDSAVYYCARVGTGSLDYWGQGTSVTVSS
VL: DIVMTQSPATLSVTPGDRVSLSCRASQSISDYLHWYQQKSHESPRLLIKYVSQSISGIPSRFSGSGSGSYFTLSIDSVEPEDVGVYYCQNGHRFPYTFGGGTKLEIK
modifications: Full-length hMCT1 with hBSG isoform 2 (limits not given; signal peptide 1-21 removed by convention); Ig-domain disulfides; N-glycosylated BSG if expressed in mammalian cells

Kd (WT mMCT1/mBSG complex): 0.421 nM
B2: 6E7F1 monoclonal antibody (antibody, V domains shown)
VH: B1 VH
VL: B1 VL
